Measurements as given in patent publication US20120308574A1 (HANWHA CHEMICAL, published 2012).

T1: mVCAM-1-Fc chimera (R&D systems, Cat# 643-VM) (mouse, UniProt P29533 25-698)
T1 construct: Bought product; also called Mouse VCAM-1 antigen; mouse antigen; Fc part of the bought chimera not given
T1 sequence (looked up): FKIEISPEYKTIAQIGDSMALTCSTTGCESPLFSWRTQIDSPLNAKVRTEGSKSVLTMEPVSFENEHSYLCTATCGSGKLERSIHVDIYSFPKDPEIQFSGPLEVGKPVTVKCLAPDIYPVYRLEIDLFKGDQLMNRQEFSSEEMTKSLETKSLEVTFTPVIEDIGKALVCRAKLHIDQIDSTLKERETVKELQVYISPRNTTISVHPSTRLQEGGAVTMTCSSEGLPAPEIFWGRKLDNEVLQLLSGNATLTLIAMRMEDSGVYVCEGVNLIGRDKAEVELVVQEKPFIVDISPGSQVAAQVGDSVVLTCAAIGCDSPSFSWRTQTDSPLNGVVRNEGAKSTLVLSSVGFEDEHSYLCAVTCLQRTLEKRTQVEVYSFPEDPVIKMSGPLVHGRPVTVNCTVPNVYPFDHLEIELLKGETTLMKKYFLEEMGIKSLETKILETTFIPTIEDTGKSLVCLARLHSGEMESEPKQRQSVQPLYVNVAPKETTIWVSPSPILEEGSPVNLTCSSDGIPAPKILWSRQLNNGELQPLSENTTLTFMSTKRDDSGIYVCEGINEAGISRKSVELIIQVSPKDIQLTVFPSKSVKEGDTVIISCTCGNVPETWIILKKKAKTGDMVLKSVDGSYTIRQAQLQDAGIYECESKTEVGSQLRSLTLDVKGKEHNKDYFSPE

T2: recombinant human VCAM-1 domain 1~7/Fc chimera (R&D, 862-VC) (human, UniProt P19320 25-698)
T2 construct: domain: domain 1~7; Bought product; also called VD7; hVCAM-Fc-chimera; Fc part of the bought chimera not given
T2 sequence (looked up): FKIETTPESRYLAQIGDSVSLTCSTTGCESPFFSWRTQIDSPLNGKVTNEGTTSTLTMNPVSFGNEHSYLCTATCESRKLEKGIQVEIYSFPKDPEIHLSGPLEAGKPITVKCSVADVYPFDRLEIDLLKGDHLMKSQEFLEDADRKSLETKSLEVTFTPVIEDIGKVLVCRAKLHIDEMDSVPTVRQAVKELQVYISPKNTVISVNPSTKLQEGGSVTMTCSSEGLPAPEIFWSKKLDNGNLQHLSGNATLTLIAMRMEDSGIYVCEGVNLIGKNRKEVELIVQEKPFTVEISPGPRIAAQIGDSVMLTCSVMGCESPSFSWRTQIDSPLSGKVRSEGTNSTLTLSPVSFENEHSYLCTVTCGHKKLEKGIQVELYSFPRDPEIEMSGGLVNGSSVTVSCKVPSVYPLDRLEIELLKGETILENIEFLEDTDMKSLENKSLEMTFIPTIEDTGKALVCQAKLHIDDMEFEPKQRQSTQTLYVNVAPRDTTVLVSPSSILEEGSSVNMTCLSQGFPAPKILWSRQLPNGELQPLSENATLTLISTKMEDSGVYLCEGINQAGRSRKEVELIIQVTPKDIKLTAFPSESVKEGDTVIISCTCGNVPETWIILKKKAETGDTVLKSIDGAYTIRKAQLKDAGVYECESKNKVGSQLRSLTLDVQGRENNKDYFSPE

T3: recombinant human VCAM-1 (Cat. No. 809-VR-200, R&D systems) (human, UniProt P19320 25-698, limits assumed)
T3 sequence (looked up): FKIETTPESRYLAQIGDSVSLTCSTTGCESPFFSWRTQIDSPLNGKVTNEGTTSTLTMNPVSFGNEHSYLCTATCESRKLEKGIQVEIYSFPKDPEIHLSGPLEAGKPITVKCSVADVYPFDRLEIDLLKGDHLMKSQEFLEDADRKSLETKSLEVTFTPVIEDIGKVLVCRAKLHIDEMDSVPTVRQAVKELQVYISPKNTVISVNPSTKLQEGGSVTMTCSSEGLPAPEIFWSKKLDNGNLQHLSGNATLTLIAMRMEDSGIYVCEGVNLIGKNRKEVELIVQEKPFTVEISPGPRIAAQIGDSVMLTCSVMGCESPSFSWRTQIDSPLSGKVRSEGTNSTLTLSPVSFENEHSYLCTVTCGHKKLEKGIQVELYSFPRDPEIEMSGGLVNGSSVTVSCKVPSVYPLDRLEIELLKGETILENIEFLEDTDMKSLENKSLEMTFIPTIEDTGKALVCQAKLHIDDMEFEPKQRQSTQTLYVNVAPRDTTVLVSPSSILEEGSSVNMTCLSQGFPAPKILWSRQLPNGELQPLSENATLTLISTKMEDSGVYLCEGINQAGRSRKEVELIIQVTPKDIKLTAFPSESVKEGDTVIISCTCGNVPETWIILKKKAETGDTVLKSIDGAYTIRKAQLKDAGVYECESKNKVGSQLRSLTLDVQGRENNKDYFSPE


What was measured:
[1] = target: T1, mVCAM-1-Fc chimera (R&D systems, Cat# …); assay: SPR (BIACORE), VCAM-1/Fc immobilised on CM5 chip, antibody as analyte, 1:1 binding model
Description: (§1) 1 mg/Ml of ligand to be immobilized was diluted in 97 μl of each sodium acetate solution (varying within the pH range from 4.0 to 5.5) at a dilution ratio of 3/100, and then applied at a flow rate of 10 μl/min for about 3 min (as a negative control, the ligand was diluted using a running buffer, HBS-EP buffer (BIACORE AB, Sweden) in the same manner). In order to immobilize the ligand at a predetermined value target RU (resonance unit), serial injection was carried out automatically, until reaching target RU. The ligand-immobilized chip was inactivated by injection of 1M ethanolamine (Amine Coupling Kit, BR-1000-50) at a flow rate of 10 μl/min for about 3 min. The final RU was determined by an immobilization report which provides a difference in RU values before and after injection of ethanolamine.
(§2) A flow cell2-flow cell mode provided by BIACORE instrument was employed in this experiment in order to remove non-specific binding. At this time, a recombinant VCAM1/Fc antigen was immobilized as a ligand to the flow cell2, and BSA (Bovine Serum Albumin) was immobilized to the flow cell. Then, each of the anti VCAM-1 antibodies 4B, 7C and 7H as the analyte were applied to flow cell 1 and 2, simultaneously. The sensogram RU of flow cell was automatically subtracted from the sensogram RU of flow cell2. Subsequently, the analytes were applied at a flow rate of 30 μl/min for about 3 min, and then dissociation was induced for 120 sec. Through this procedure, an association/dissociation curve of the corresponding antigen and antibody was obtained, and an association/dissociation constant KD was calculated by BIAevaluation program (BIACORE AB, Sweden), as shown in the following Table 2.
(§3) The above Table 2 represents the binding capacity or affinity of human and mouse VCAM-1 antigen-specific anti VCAM-1 human monoclonal antibodies to antigen, and a protein affinity analyzer, BIACORE (BIACORE AB, Sweden) was used to analyze a species specific antigen-antibody affinity to the biologically different species, human and mouse antigens. The affinity constant KD value of corresponding antigen-antibody was calculated in a 1:1 binding mode.

[2] = target: T2, recombinant human VCAM-1 domain 1~7/Fc …; assay: as above
Description: as §1, §2, §3

[3] = target: T3, recombinant human VCAM-1 (Cat. No. …); assay: cell-based or functional assay
[4] = target: T1, mVCAM-1-Fc chimera (R&D systems, Cat# …); assay: SPR (BIACORE), VCAM-1/Fc immobilised on CM5 chip, antibody as analyte
Description: as §1, with “For ligand immobilization to the sensor chip CM5, the chip should be first activated with a mixture of N-hydroxysuccinimide (NHS) and […] (EDC) (Amine Coupling Kit, BR-1000-50) to prepare a NHS-ester-activated chip surface being highly reactive to an amino group. 1 mg/Ml” for “1 mg/Ml”, “target RU. […] The final” for “target RU. The ligand-immobilized chip was inactivated by injection of 1M ethanolamine (Amine Coupling Kit, BR-1000-50) at a flow rate of 10 μl/min for about 3 min. The final”
(§4) A flow cell2-flow cell mode provided by BIACORE instrument was employed in this experiment in order to remove non-specific binding. […] Through this procedure, an association/dissociation curve of the corresponding antigen and antibody was obtained, and an association/dissociation constant KD was calculated by BIAevaluation program (BIACORE AB, Sweden), as shown in the following Table 2.

[5] = target: T2, recombinant human VCAM-1 domain 1~7/Fc …; assay: SPR (BIACORE), VCAM-1/Fc immobilised, antibody as analyte
Description: as §1, with “For ligand immobilization to the sensor chip CM5, the chip should be first activated with a mixture of N-hydroxysuccinimide (NHS) and […] (EDC) (Amine Coupling Kit, BR-1000-50) to prepare a NHS-ester-activated chip surface being highly reactive to an amino group. 1 mg/Ml” for “1 mg/Ml”, “target RU. […] The final” for “target RU. The ligand-immobilized chip was inactivated by injection of 1M ethanolamine (Amine Coupling Kit, BR-1000-50) at a flow rate of 10 μl/min for about 3 min. The final”
as §4

| Binder | Kd [1] [nM] | Kd [2] [nM] | inhibition of adhesion of fluorescence-labelled U937 leukocytes to coated human VCAM-1 (reduction in fluorescence intensity) [3] [%] | binding result [4] | Kd [5] [nM] |
| --- | --- | --- | --- | --- | --- |
| anti VCAM-1 human monoclonal antibody 7H (antibody, V domains shown) VH: QMQLVQSGGDLVKPGESLRLSCAASGFTFNDAWMTWVRQPPGKGLEWVGRIKSTTDGGTTNYAAPVEGRFTISRDDSKNTLYLEMNSLRAEDTAVYYCARIPLFNHDSGGYHGAFDIWGQGTMVTVSS VL: DIQMTQSPSSLAVSLGERATINCKSSQSVLYSSNNKNYLAWYQQKPGQPPKLLIYWASTRESGVPDRFSGSGSGTDFTLTISSLQPEDFASYYCQESYSAPYTFGQGTKVEIKR | 10.7 | 5.44 | 90 | – | – |
| anti VCAM-1 human monoclonal antibody 7C (antibody, V domains shown) VH: QVQLVESGGGVVQPGGSLRLSCAASGFTFDDYAMHWVRQAPGKGLEWVSLISGDGTDTYYADSVKGRFTISRDNSKNSLYLQMNSLRAEDTAVYYCAKRGYSYLGALDGWGQGTKITVSS VL: QLVLTQSPSVSVAPGQTARITCGGDNIGRESVHWYQQKAGQAPVLVIYYDSDRPSGIPERFSGSNSGNTATLTISWVDAGDEADYYCQVWDSSSDHVVFGGGTKLTVL | 36.9 | 38.8 | 90 | – | – |
| anti VCAM-1 human monoclonal antibody 4B (antibody, V domains shown, Tested as full IgG converted from an scFv phage clone and expressed in CHO-S (about 55 kDa heavy chain, about 25 kDa light chain)) VH: QMQLVESGGGLVQPGGSLRLSCAASGFTFSSYGVSWVRQAPGKGLEWVSRISGSGGSTYYADSVKGRFTISRDNSKSTLYLQMNSLRAEDTAVYYCARPIFYGGNSAFDSWGQGTLVTVSS VL: QLVLTQPPSVSAAPGQKVTISCSGSSSNIGNNFVSWYQHLPGTAPKLLIYDNNKRPSGIPDRFSGSKSGTSATLGIAGLQTGDDADYYCGTWDSSLSAYVFGTGAKVTVL | – | 0.5 | 80 | no binding | ~1 |
